Measurements from patent US20240100162A1 (published 2024).

Key:
[1] = biological target: T1, MAGE-B2 peptide, S9A peptide on HLA-A*02:01 (human); assay: killing
T1 peptide: GVYDGEEHAV

[2] = biological target: T2, MAGE-B2 peptide, S9E peptide on HLA-A*02:01 (human); assay: killing
T2 peptide: GVYDGEEHEV

[3] = biological target: T3, MAGE-B2 peptide, V10A peptide on HLA-A*02:01 (human); assay: killing
T3 peptide: GVYDGEEHSA

[4] = biological target: T4, MAGE-B2 peptide, S9W peptide on HLA-A*02:01 (human); assay: killing
T4 peptide: GVYDGEEHWV

[5] = biological target: T5, MAGE-B2 peptide, H8W peptide on HLA-A*02:01 (human); assay: killing
T5 peptide: GVYDGEEWSV

[6] = biological target: T6, MAGE-B2 peptide, S9V peptide on HLA-A*02:01 (human); assay: killing
T6 peptide: GVYDGEEHVV

[7] = biological target: T7, MAGE-B2 peptide, Y3F peptide on HLA-A*02:01 (human); assay: killing
T7 peptide: GVFDGEEHSV

[8] = biological target: T8, MAGE-B2 peptide, V2L peptide on HLA-A*02:01 (human); assay: killing
T8 peptide: GLYDGEEHSV

[9] = biological target: T9, MAGE-B2 peptide, S9D peptide on HLA-A*02:01 (human); assay: killing
T9 peptide: GVYDGEEHDV

[10] = biological target: T10, MAGE-B2 peptide, V10L peptide on HLA-A*02:01 (human); assay: killing
T10 peptide: GVYDGEEHSL

[11] = biological target: T11, MAGE-B2 peptide, S9C peptide on HLA-A*02:01 (human); assay: killing
T11 peptide: GVYDGEEHCV

[12] = biological target: T12, MAGE-B2 peptide, V2I peptide on HLA-A*02:01 (human); assay: killing
T12 peptide: GIYDGEEHSV

[13] = biological target: T13, MAGE-B2 peptide, H8Y peptide on HLA-A*02:01 (human); assay: killing
T13 peptide: GVYDGEEYSV

[14] = biological target: T14, MAGE-B2 peptide, E7M peptide on HLA-A*02:01 (human); assay: killing
T14 peptide: GVYDGEMHSV

[15] = biological target: T15, MAGE-B2 peptide, V2T peptide on HLA-A*02:01 (human); assay: killing
T15 peptide: GTYDGEEHSV

[16] = biological target: T16, MAGE-B2 peptide, E6V peptide on HLA-A*02:01 (human); assay: killing
T16 peptide: GVYDGVEHSV

[17] = biological target: T17, MAGE-B2 peptide, E7H peptide on HLA-A*02:01 (human); assay: killing
T17 peptide: GVYDGEHHSV

[18] = biological target: T18, MAGE-B2 peptide, E7N peptide on HLA-A*02:01 (human); assay: killing
T18 peptide: GVYDGENHSV

[19] = biological target: T19, MAGE-B2 peptide, S9N peptide on HLA-A*02:01 (human); assay: killing
T19 peptide: GVYDGEEHNV

[20] = biological target: T20, MAGE-B2 peptide, V2M peptide on HLA-A*02:01 (human); assay: killing
T20 peptide: GMYDGEEHSV

[21] = biological target: T21, MAGE-B2 peptide, S9P peptide on HLA-A*02:01 (human); assay: killing
T21 peptide: GVYDGEEHPV

[22] = biological target: T22, MAGE-B2 peptide, S9Q peptide on HLA-A*02:01 (human); assay: killing
T22 peptide: GVYDGEEHQV

[23] = biological target: T23, MAGE-B2 peptide, S9G peptide on HLA-A*02:01 (human); assay: killing
T23 peptide: GVYDGEEHGV

[24] = biological target: T24, MAGE-B2 peptide, E7Y peptide on HLA-A*02:01 (human); assay: killing
T24 peptide: GVYDGEYHSV

[25] = biological target: T25, MAGE-B2 peptide, E7C peptide on HLA-A*02:01 (human); assay: killing
T25 peptide: GVYDGECHSV

[26] = biological target: T26, MAGE-B2 peptide, E7L peptide on HLA-A*02:01 (human); assay: killing
T26 peptide: GVYDGELHSV

[27] = biological target: T27, MAGE-B2 peptide, H8F peptide on HLA-A*02:01 (human); assay: killing
T27 peptide: GVYDGEEFSV

[28] = biological target: T28, MAGE-B2 peptide, V10I peptide on HLA-A*02:01 (human); assay: killing
T28 peptide: GVYDGEEHSI

[29] = biological target: T29, MAGE-B2 peptide, S9T peptide on HLA-A*02:01 (human); assay: killing
T29 peptide: GVYDGEEHTV

[30] = biological target: T30, MAGE-B2 peptide, S9I peptide on HLA-A*02:01 (human); assay: killing
T30 peptide: GVYDGEEHIV

[31] = biological target: T31, MAGE-B2 peptide, D4C peptide on HLA-A*02:01 (human); assay: killing
T31 peptide: GVYCGEEHSV

[32] = biological target: T32, MAGE-B2 peptide, H8N peptide on HLA-A*02:01 (human); assay: killing
T32 peptide: GVYDGEENSV

[33] = biological target: T33, MAGE-B2 peptide, D4N peptide on HLA-A*02:01 (human); assay: killing
T33 peptide: GVYNGEEHSV

[34] = biological target: T34, MAGE-B2 peptide, E7Q peptide on HLA-A*02:01 (human); assay: killing
T34 peptide: GVYDGEQHSV

[35] = biological target: T35, MAGE-B2 peptide, E7D peptide on HLA-A*02:01 (human); assay: killing
T35 peptide: GVYDGEDHSV

[36] = biological target: T36, MAGE-B2 peptide on HLA-A*02:01 (human); assay: multimer staining
T36 peptide: GVYDGEEHSV

[37] = biological target: T37, MAGE-B2 peptide, E7S peptide on HLA-A*02:01 (human); assay: killing
T37 peptide: GVYDGESHSV

[38] = biological target: T38, MAGE-B2 peptide, H8S peptide on HLA-A*02:01 (human); assay: killing
T38 peptide: GVYDGEESSV

[39] = biological target: T39, MAGE-B2 peptide, S9M peptide on HLA-A*02:01 (human); assay: killing
T39 peptide: GVYDGEEHMV

[40] = biological target: T40, MAGE-B2 peptide, H8A peptide on HLA-A*02:01 (human); assay: killing
T40 peptide: GVYDGEEASV

[41] = biological target: T41, MAGE-B2 peptide, H8E peptide on HLA-A*02:01 (human); assay: killing
T41 peptide: GVYDGEEESV

Measured: binding result

B1: TCR1 (TCR, V domains shown)
Valpha: KQEVTQIPAALSVPEGENLVLNCSFTDSAIYNLQWFRQDPGKGLTSLLLIQSSQREQTSGRLNASLDKSSGRSTLYIAASQPGDSATYLCAAMKTSYDKVIFGPGTSLSVIP
Vbeta: GEEVAQTPKHLVRGEGQKAKLYCAPIKGHSYVFWYQQVLKNEFKFLISFQNENVFDETGMPKERFSAKCLPNSPCSLEIQATKLEDSAVYFCASSQGQGGYGYTFGSGTRLTVV
not listed: [37] | [38] | [39] | [40] | [41]
recognises: all other assays above

B2: TCR2 (TCR, V domains shown)
Valpha: QKEVEQNSGPLSVPEGAIASLNCTYSDRGSQSFFWYRQYSGKSPELIMSIYSNGDKEDGRFTAQLNKASQYVSLLIRDSQPSDSATYLCAVNIPFSNSGGYQKVTFGTGTKLQVIP
Vbeta: NAGVTQTPKFRVLKTGQSMTLLCAQDMNHEYMYWYRQDPGMGLRLIHYSVGEGTTAKGEVPDGYNVSRLKKQNFLLGLESAAPSQTSVYFCASRHPGQYNQPQHFGDGTRLSIL
recognises: all assays above

B3: TCR3 (TCR, V domains shown)
Valpha: AQKVTQAQTEISVVEKEDVTLDCVYETRDTTYYLFWYKQPPSGELVFLIRRNSFDEQNEISGRYSWNFQKSTSSFNFTITASQVVDSAVYFCALSVLRMDSSYKLIFGSGTRLLVRP
Vbeta: NAGVTQTPKFRVLKTGQSMTLLCAQDMNHEYMYWYRQDPGMGLRLIHYSVGEGTTAKGEVPDGYNVSRLKKQNFLLGLESAAPSQTSVYFCASSLQGAGQPQHFGDGTRLSIL
recognises: all assays above
